Assay [1] deals with NaV1.5 α subunit, DIII LFS voltage clamp fluorometry construct (M1296C), labelled with MTS-TAMRA (human) (UniProt Q14524).
The target in assay [2] is NaV1.5 α subunit, DIV voltage clamp fluorometry construct (S1618C), labelled with MTS-TAMRA (human) (UniProt Q14524).
The target of assay [3] is NaV1.5 α subunit, DIII LFS voltage clamp fluorometry construct (M1296C), labelled with MTS-TAMRA (human) (UniProt Q14524). The source holds these as a separate data set.
Assay [4] deals with A1330W mutant NaV1.5 channel in the DIII-M1296C VCF construct, labelled with MTS-TAMRA (human) (UniProt Q14524).

This is an account of results in paper PMC5560778.

For β3-NTM β1-C chimera, in assay [1], the depolarizing shift of the DIII F-V curve (voltage clamp fluorometry in oocytes), α with chimera against α alone amounted to 22.9 mV. Regarding “WT NaV β1 subunit (from UniProt Q07699-1 19-218) (natural protein)”, in assay [2], the depolarizing shift of the DIV F-V curve (voltage clamp fluorometry in oocytes), α with β1 against α alone was found to be 31.3 mV.

B1: WT NaV β3 subunit (natural protein)
chain: FPVCVEVPSETEAVQGNPMKLRCISCMKREEVEATTVVEWFYRPEGGKDFLIYEYRNGHQEVESPFQGRLQWNGSKDLQDVSITVLNVTLNDSGLYTCNVSREFEFEAHRPFVKTTRLIPLRVTEEAGEDFTSVVSEIMMYILLVFLTLWLLIEMIYCYRKVSKAEEAAQENASDYLAIPSENKENSAVPVEE
In the case of B1, the depolarizing shift of the DIII F-V curve (voltage clamp fluorometry in oocytes), α with β3 against α alone in assay [3] was determined as 20.7 mV. The depolarizing shift of the DIII F-V curve (voltage clamp fluorometry in oocytes), A1330W with β3 against A1330W alone in assay [4] was 22.6 mV.
